The labels stand for the following.
T1: Rhesus D antigen (human, UniProt Q02161 2-417)
T1 construct: whole, on cells; Presented on RhD(+) erythrocytes; also called RhD; RhD antigen
T1 sequence (looked up): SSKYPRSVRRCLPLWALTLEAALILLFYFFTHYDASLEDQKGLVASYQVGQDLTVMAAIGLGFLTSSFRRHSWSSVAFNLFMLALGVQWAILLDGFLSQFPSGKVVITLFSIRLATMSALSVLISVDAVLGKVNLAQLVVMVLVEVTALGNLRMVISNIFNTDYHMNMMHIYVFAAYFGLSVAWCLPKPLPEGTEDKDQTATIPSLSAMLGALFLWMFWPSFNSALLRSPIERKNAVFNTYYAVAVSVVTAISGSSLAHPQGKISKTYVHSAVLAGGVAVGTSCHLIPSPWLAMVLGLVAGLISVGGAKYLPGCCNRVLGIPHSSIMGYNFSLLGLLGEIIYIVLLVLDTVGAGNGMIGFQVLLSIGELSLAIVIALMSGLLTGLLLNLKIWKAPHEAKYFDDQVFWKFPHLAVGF

B1: RhD200.164G10 (Fab, V domains shown)
VH: VQLVESGGGGVVQPGRSLRLSCAASGFTFSSYGMHWVRQAPGKGLEWVAVIWYDGSNKYYADSVKGRFTISRDNSKNTLYLQMNSLRAEDTAVYYCARESTLYSSSWYRRYYYYGMDVWGQGTTVTVSS
VL: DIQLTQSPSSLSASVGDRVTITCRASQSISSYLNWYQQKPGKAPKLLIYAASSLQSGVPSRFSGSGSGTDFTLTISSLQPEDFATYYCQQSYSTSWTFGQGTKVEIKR
notes: Tested as Fab in E. coli periplasmic extract (VH on human gamma 1 CH1, vector Em351)
B2: RhD201.164H12 (Fab, V domains shown)
VH: B1 VH with V1Q, Q2V, L3Q, V4L, E5V, S6E, G7S, G33A, W52S, G115S
VL: EIVLTQSPATLSVSPGERATLSCRASQSVTSNLAWYQQKPGQAPRLLIYGASTRATGVPARFSGSGSGTEFSLTISSLQSEDFAVYYCQQYNNWPPIFTFGPGTKLDIKR
notes: as for B1
B3: RhD195.127A07 (Fab, V domains shown)
VH: QVQLQESGPGLVKPSQTLSLTCTVSGGSISSGSYYWSWIRQPAGKGPEWIGRIYTSGSTNYNPSLKSRLTISVDTSKNQFSLKLTSVTAADTAVYYCARAPSYYDSSGYRYWYIDLWGRGTLVTVSS
VL: DIQLTQSPSSLSASVGDRVTITCRASQNINRYLNWYQHKPGRAPELLIYAASTLRRGVPSRFSGSGSGTDFTLTISSLQPEDFATYYCQQSYSRGTFGQGTKVEIKR
notes: as for B1
B4: RhD197.127A08 (Fab, V domains shown)
VH: QVQLVESGGGVVQPGRSLRLSCAASGFTFSNYGMHWVRQAPGKGLEWVAVIWFDGSNRDYADSVKGRFTISRDNSKKTLYLQMNSLRAEDTAVYYCATELARGRLRALEYWGQGTLVTVSS
VL: QTVVTQEPSLTVSPGGTVTLTCASSTGAVTTGYYPNWFQQKPGQAPRALIYSTSKKHSWTPARFSGSLLGGKAALTLSGVQPEDEAEYYCLLFYGGAQLGVFGGGTKLTVLG
notes: Tested as Fab in E. coli periplasmic extract (VH on human gamma 1 CH1, vector Em351); Lambda clone
B5: RhD207.127A11 (Fab, V domains shown)
VH: EVQLVESGGGVVQPGRSLRLSCAASGFTFSSYGMHWVRQAPGKGLEWVAVIWYDGSNKDYVDSVKGRFTISRDNSKNTLYLQMNSLRAEDTAVYYCARELAKGRLRDLDHWGQGTLVTVSS
VL: B4 VL with T2A, I50V, Y51H
notes: as for B1
B6: RhD193.126G05 (Fab, V domains shown)
VH: QVQLVETGGGVVQPGRSLRLSCAASGFTFSSYGMHWVRQAPGKGLEWVAVIWYDGSNKDYADPVKGRFTISRDNSKNTLYLQMNSLRAEDTAVYYCAREIASRGYSRYLYYFDSWGQGTLVTVSS
VL: DIQMTQSPSSLSASVGDRVTITCRASQSISSYLNWYQQNPGKAPKLLIYGASNLQSGVPSRFSGSGSGTDFTLTISSLQPEDFATYYCQQSYSTLALTFGGGTKVEIKR
notes: as for B1
B7: RhD297.126E06 (Fab, V domains shown)
VH: B6 VH with T7S, S30R, S31T, P63S, Y80H, F112L, S114F
VL: B6 VL with M4L
notes: as for B1
B8: RhD203.179F07 (Fab, V domains shown)
VH: EVQLVESGGGVVQPGRSLRLSCAASGFTFSNYGMHWVRQAPGKGLEWVAVIWYDGSNKYYADSVKGRFTISRDNSKNTLYLQMNSLRAEDTAVYYCAREMVSYSSSWYRRYYYYVMDVWGKGTTVTVSS
VL: QSALTQPASVSGSPGQSITISCTATSSDIGAYNYVSWYQHHPGKAPKVIITDVNKRPSGVPDRFSGSKSGNTASLTISGLQPEDEAEYSCCSYAGTYSYVFGTGTKVTVLS
notes: as for B1
B9: RhD194.126G10 (Fab, V domains shown)
VH: QVTLKESGPVLVKPTETLTLTCTVSGFSLSNARMGVSWIRQPPGKALEWLAHIFSNDEKSYSTSLKSRLTISKDTSKSQVVLTMTNMDPVDTATYYCARMRLTMVRGVITYYYYSMDVWGQGTTVTVSS
VL: DIQMTQSPSSLSASVGDRVTITCRASQSISTYLNWYQQKPGKAPKLLIYAASTLQSGVPSRFSGSGSGTHFTLTISSLQREDFATYYCQQTYRTPTWTFGQGTKVEIKR
notes: as for B1
B10: RhD298.126E10 (Fab, V domains shown)
VH: QVQLVESGGGVVQPGRSLRLSCAASGFTFSSYGMHWVRQAPGKGLEWVAVIWYDGSNKYYADSVKGRFTISRDNSKNTLYLQMNSVRAEDTAVYYCARDLSTQRGYSRYYYVMDVWGQGTTVTVSS
VL: B9 VL with Y49S, T53S, H70D, F83Y, T85A, T91S, R93S, T96P, W97Y, V105L
notes: as for B1
B11: RhD196.126H11 (Fab, V domains shown)
VH: B10 VH with Y59D, D99E, Y110H
VL: B9 VL with T91S, R93G
notes: as for B1
B12: RhD198.127F10 (Fab, V domains shown)
VH: B10 VH with E6Q, R16K, S31T, N74T, A88V, S101T, Y110H
VL: DIQMTQSPSSLSASVGDRVTITCRASQSIGNYLNWYQQKPGKAPKLLISAASSLQSGVPSRFSGSGSGTDFTLTISSLHREDYATYYCQQSYSTPPYTFGQGTKLEIKR
notes: as for B1
B13: RhD192.119G06 (Fab, V domains shown)
VH: QVQLVESGGGLVKPGGSLRLSCAASGFTFSSYAMNWVRQAPGKGLEWVSSISGTSSYIYYADSVKGRFTIFRDNAKSSVYLQMNSLRVEDTAVYYCARDRWWGMVRRVFPTYPFDYWGQGTLVTVSS
VL: DIQLTQSPSSVSASVGDRVTITCRASQGINNLLAWYQQKPGKAPKLLIYAASNLQSGVPSRFSGSGSGTDFTLTINSLQPEDFATYYCQQANSFPLTFGGGTKVEIKR
notes: as for B1
B14: RhD190.119F05 (Fab, V domains shown)
VH: EVQLVETGGGVVQPGRSLRLSCAASGFSFSNYGMHWVRQAPGKGLEWVAVIWFDGSIKYYVDSVKGRFTISRDNSKNTLYLQMNSLRAEETAIYFCARENSVLVPGTIRRRYYLDYWGQGTLVTVSS
VL: DIQLTQSPSSLSASVGDRVTITCRASQSISSYLNWYQQKPGEAPKLLIYVASTLQSGAPSRFSGSGSGTDYTLTISSLQPEDSATFYCQQTYSPPYTFGQGTKLEIKR
notes: as for B1
B15: RhD191.119E08 (Fab, V domains shown)
VH: QVQLVESGGDLVQPGGSLRLSCAASGFTFRSYEMNWVRQAPGKGLEWVSYINSRGNTKYYADSVKGRFTISRDNAKKSLYLQMSSLRAEDTAVYYCARNLFGDYDLKSYYYNAMDVWGQGTLVTVSS
VL: EIVLTQSPGTLSSSPGERATLSCRASQSVTSRYLAWYQQKHGQAPRLLIYGTSTRATGIPDRFSGGGSQTDFTLTISRLEPEDFAVYYCQHYDDSISTYIFGPGTELEIKR
notes: as for B1
B16: RhD204.128A03 (Fab, V domains shown)
VH: EVQLVESGGGVVQPGRSLRLSCAASGFSFSNYGMHWVRQAPGKGLEWVAVISYDGSEKYYADSVKGRFTISRDNSKKALYLQMNSLRAEDTAMYYCKNKVGATRRAVVAFDIWGQGTTVTVSS
VL: LSSELTQDPAVSVALGQTVRITCQGDSLRSYYANWYQQKPGQAPLSVIYGKNNRPSGIPDRFSGSNSGNTAFLTITGTQAEDEADYYCNSRDSSGNYRELFGGGTKLTVLG
notes: as for B4
B17: RhD202.158E07 (Fab, V domains shown)
VH: QVQLVESGGGVVQPGRSLRLSCAASGFTFSSYGMHWVRQAPGKGLEWVAVIWFDGSNRYYGDSVKGRVTISRDNSKNTLYLRMNSLRAEDTAVYYCAREFYTRSGLWSQGYSYYMDVWGKGTTVTVSS
VL: EIVLTQSPGTLSLSPGERATLSCRASQSVSSSYLAWYQHKPGQAPRLLIYGSSNRATGIPDRFSGSGSGTDFTVTISRLEPEDFAVYYCQQYGTAPYTFGQGTKLEIKR
notes: as for B1
B18: RhD157.119D11 (Fab, V domains shown)
VH: EVQLVESGGGLVQPGGSLRLSCVASGFTFRSFDMNWVRQAPGKGLEWVSYINSRGSTIYYADSVKGRFTISRENAKNSLYLQMNSLRAEDTAVYYCARDLYGDYDPKSYYYYGMGVWGQGTTVTVSS
VL: EIVLTQSPATLSLSPGERATLSCRASQSVSSYLAWYQQKRGQAPRLLIFNASNRATGIPARFSGSGSGTDFTLTISSLEPEDFAVYYCQQRSSWPPMYTFGQGTKLEIKR
notes: as for B1

Changes are numbered by the printed parent chain.

The assay addresses T1, Rhesus D antigen. The experiment in a line: agglutination assay, Fab periplasmic extract on RhD(+)/RhD(-) RBC mix. The procedure: After each round of panning single colonies were picked for analysis of their binding properties to red blood cells in agglutination assays. Briefly, single colonies were inoculated into 2×YT/100 μg/mL carbenicillin/1% glucose and shaken overnight at 37° C. The next day, DeepWell plates were inoculated using 900 μl 2×YT/100 μg/mL carbenicillin/0.1% glucose and 10 μl overnight culture. The plates were shaken for two hours at 37° C., before Fab induction was performed with addition of 300 μl 2×YT/100 μg/mL carbenicillin/0.25 mM IPTG per well. The plate was shaken overnight at 30° C. The following day, the bacteria were pelleted by centrifugation (3200×g, 4° C., 10 minutes), and re-suspended in 100 μl of 0.8 M NaCl, 0.2×PBS, 8 mM EDTA, and incubated for 15 minutes on ice in order to perform a periplasmic extraction of the Fab fragments. The plate was transferred to −20° C. and finally the suspension was thawed and centrifugation was performed for 10 minutes at 4° C. and 3200×g. The periplasmic extract was used in ELISA assays for analysis of Fab content and in agglutination assays to evaluate the binding potential of the individual Fab fragments.
The agglutination assay was performed as follows: RhD(−) and RhD(+) RBC were mixed in a 1:1 ratio, and washed 3 times in PBS. After the final wash, the cell mix was re-suspended in 1% BSA in PBS at a density of 10% cells, 50 μl was added to each well of a 96-plate. Periplasmic extracts were added to the wells. As a positive control Rhesogamma P immunoglobulin (Aventis) was used according to the manufacturer's instructions. The plates were incubated for one hour at room temperature with gentle shaking. The cells were washed three times with PBS, before the secondary antibody was added (goat anti-human Fab/FITC conjugate, Sigma F5512) in a 1:100 dilution. The plates were left for agglutination for one hour at room temperature without shaking. Fab fragments positive in the agglutination assay was determined by visual inspection, and recorded by taking a picture. Quantization of the binding activity of the Fab fragments was performed by FACS analysis of the agglutination samples.
Turning to B1, the binding result is “binds”. For B2 the value was “binds”; for B3, “binds”; for B4, “binds”. In the case of B5, the binding result is listed as “binds”.

In the case of B6, the binding result is “binds”. Take B7: the binding result is “binds”. For B8 the value was “binds”; for B9, “binds”; for B10, “binds”. Take B11: the binding result is “binds”. In the case of B12, the binding result is “binds”. For B13 the value was “binds”.

For B14, the binding result is “binds”. Next, B15: “binds”. For B16, the binding result is “binds”.

As to B17, the binding result is “binds”. Turning to B18, the binding result is “binds”.
